Drawing on article PMC6980540, this text covers ATP hydrolysis rate (normalized for enzyme concentration) of monomeric Spa47 as a function of enzyme concentration, ATPase activity of the Spa47 oligomer formed in vitro by concentrating the monomer to ~200 μM ((μmol ADP/min) /mg Spa47) and ATPase activity of the isolated monomeric Spa47 before its conversion to oligomer ((μmol ADP/min) /mg Spa47) for one substance.

Experiment [1] concerns the target Spa47 (Shigella T3SS ATPase), wild-type (S. flexneri) (UniProt P0A1C1).
The target is the same in experiment [2]. This is another data set of the same source.

For the substance “Spa47 (Shigella T3SS ATPase), wild-type (from UniProt P0A1C1 1-430) (enzyme)”, the ATP hydrolysis rate (normalized for enzyme concentration) of monomeric Spa47 as a function of enzyme concentration in experiment [1] is 3 fold. In experiment [2], this substance came in with an ATPase activity of the Spa47 oligomer formed in vitro by concentrating the monomer to ~200 μM ((μmol ADP/min) /mg Spa47) of 1.5 and an ATPase activity of the isolated monomeric Spa47 before its conversion to oligomer ((μmol ADP/min) /mg Spa47) of 0.11.
